Earlier results, collected in publication PMC8141935.

Target: GABAA receptor α3 subunit intracellular loop (UniProt P34903)
Sequence (P34903 361-457): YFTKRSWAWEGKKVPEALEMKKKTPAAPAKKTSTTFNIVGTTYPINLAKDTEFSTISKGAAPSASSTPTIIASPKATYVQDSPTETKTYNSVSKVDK

Chain of gephyrin (Q9NQX3 whole entry): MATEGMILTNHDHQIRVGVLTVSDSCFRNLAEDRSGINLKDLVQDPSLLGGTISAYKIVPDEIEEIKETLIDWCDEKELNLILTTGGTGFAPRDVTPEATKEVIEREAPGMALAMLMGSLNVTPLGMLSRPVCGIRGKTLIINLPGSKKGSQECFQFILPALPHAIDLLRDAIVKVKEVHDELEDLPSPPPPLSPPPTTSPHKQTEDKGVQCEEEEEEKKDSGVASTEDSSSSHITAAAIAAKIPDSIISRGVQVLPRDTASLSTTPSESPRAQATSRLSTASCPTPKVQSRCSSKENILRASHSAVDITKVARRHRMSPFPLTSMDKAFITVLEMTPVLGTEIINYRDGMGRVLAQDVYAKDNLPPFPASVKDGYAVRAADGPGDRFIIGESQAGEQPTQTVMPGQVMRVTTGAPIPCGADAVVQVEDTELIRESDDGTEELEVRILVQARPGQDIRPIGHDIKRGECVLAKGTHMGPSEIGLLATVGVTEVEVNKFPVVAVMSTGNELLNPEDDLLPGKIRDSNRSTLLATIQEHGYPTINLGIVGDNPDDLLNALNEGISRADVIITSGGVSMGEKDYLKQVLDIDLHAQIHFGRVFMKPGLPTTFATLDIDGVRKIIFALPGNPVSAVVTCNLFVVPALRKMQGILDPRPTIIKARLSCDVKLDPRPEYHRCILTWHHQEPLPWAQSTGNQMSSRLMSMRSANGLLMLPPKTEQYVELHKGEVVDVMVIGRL

gephyrin (from UniProt Q9NQX3)
Kd: 5.3 µM
